From PMC4514675, “Novel Apo E-Derived ABCA1 Agonist Peptide (CS-6253) Promotes Reverse Cholesterol Transport and Induces Formation of preβ-1 HDL In Vitro” (PLoS ONE, 2015)

Experiments:
human ABCG1 = biological target: T1, human ABCG1 (Homo sapiens, UniProt P45844); assay: ABCG1-mediated cholesterol efflux from BHK-ABCG1 cells; format: cell-based
T1 construct: expressed in transfected cells; host or cells: BHK cells, stably transfected, induced with 10 nmol/l mifepristone
Experimental: Supplementary file pone.0131997.s009.tif: S8 Fig In-vitro time-dependent ABCG1-mediated cholesterol efflux activity to nHDL-CS-6253 particles generated by BHK cells expressing ABCA1. Unlabeled BHK cells expressing ABCA1 were treated with 0.96 μM lipid free apo A-I or CS-6253 for 18 h as described in experimental procedures in the online-only Supplementary appendix, S1 Appendix. Then the medium was collected and added to 3[H]cholesterol-labeled ABCG1 expressing cells in a time-dependent fashion (0–6h), and assayed for cholesterol efflux (only 6h time point is shown). (TIF) Click here for additional data file.
Supplementary file pone.0131997.s010.tif: S9 Fig In-vitro ABCG1-mediated cholesterol efflux activity to lipid free CS-6253 and nHDL-CS-6253 particles generated by BHK cells expressing ABCA1. Unlabeled ABCA1 expressing cells were treated with increasing concentrations of apo A-I or CS-6253 for 18 h. The medium from unlabeled ABCA1 cells treated as described in experimental procedures, centrifuged to remove cellular debris, added to ^3[H]cholesterol-BHK ABCG1 expressing cells for 6 h, and assayed for efflux as described in the online-only Supplementary appendix, S1 Appendix. Lipid free peptide and apo A-I are also tested against ABCG1 expressing cells for 6h cholesterol efflux. (We selected 1 μM nHDL mimetic or nHDL-apo A-I or lipid free peptide and apo A-I for the figure). […] Efflux of ^3[H]cholesterol is shown as means ± SD of triplicate experiments. (TIF) Click here for additional data file.
All cell culture incubations were performed at 37 °C in a humidified 5% CO2. Cells (J774, or BHK overexpressing human ABCG1) were labeled with 2 μCi/ml ^3H-free cholesterol (Perkin Elmer, Norwalk, Connecticut) for 24 h. Simultaneously J774 cells were incubated with 2 μg/ml ACAT inhibitor (Sandoz, Sigma, Oakville, Canada). Afterward, J774 and BHK-ABCG1 were stimulated with 0.5 mmol/l (cpt-cAMP) (2) or 10 nmol/l mifepristone for 18-20 h, respectively (1). Cells were incubated with various doses of acceptor in media for 6 h for J774 macrophages and BHK-ABCG1 cells. Media were collected, centrifuged at 3.000 g for 5min to remove cell debris, and counted for radioactivity. Cells were lysed in 0.5 ml of (0.1N) NaOH overnight with constant shaking. Further, 0.2 ml cells lysates were mixed with scintillation liquid and counted for radioactivity. Efflux from stimulated cells without acceptor was subtracted from total efflux to determine net efflux. Cholesterol efflux was calculated according to the following formula as the percentage of ^3H-cpm medium/(^3H-cpm medium + ^3H-cpm cells) x 100%. Efflux efficiency (Km) was calculated using the Michaelis-Menten equation (Graph-Pad Prism6 software) respectively (S1, S8 and S9 Figs.)

[1] = test system: BHK-ABCA1 plasma membrane microdomains; assay: Desorption of phosphatidylcholine and sphingomyelin species from raft and non-raft domains of BHK-ABCA1 cells; format: cell-based, hamster; settings: 0.96 μM, 12 h
Experimental: Lipid labeling was performed as described previously with minor modifications. Briefly, BHK-cells were labeled with either 5 μCi/ml ^3[H] choline (Perkin-Elmer) for 48 h or 3 μCi/ml ^3[H] cholesterol (Perkin-Elmer) for 24 h, and then stimulated as described above. Cells were subsequently incubated with lipid-free apoA-I or CS-6253 at (0.96 μM) for 12h, and fractionated by sucrose gradient in the presence of 0.2% Triton X-100. For each fraction, lipids were extracted by Folch and ^3[H]choline-labeled PtdCho, and SM were separated by TLC in the solvent system chloroform-methanol-water (65:35:4; v/v/v), and counted.
Fig 4 Apo A-I (left panels) and CS-6253 (right panels) desorb phospholipids species from raft and nonraft domains. […] After lipid extraction by Folch, ^3[H]phosphatidyl choline (^3[H]PC) (A and B), or ^3[H]sphingomyelin (^3[H]SM) (C and D) in each fraction was assessed for radioactivity. Radioactivity appearing in fractions corresponding to raft (1–5) and nonraft (6–10) material was pooled, and desorption of ^3[H]PC (A and B inset) and ^3[H]SM (C and D inset), from raft versus nonraft in the presence of apo A-I or CS-6253 was expressed as a percentage of control (100%, in the absence of acceptor). ^3[H]PC and ^3[H]SM distributions in sucrose gradient fractions after 12h incubation with apo A-I or CS-6253 were assessed by TLC respectively. […]

[2] = BHK-ABCG1, 6 h, mean ± SD, triplicate

Substance: apolipoprotein A-I [apo A-I]
- Km (human ABCG1; [2]): 0.06 ± 0.01 µM
- Km, ABCG1-mediated cholesterol efflux (human ABCG1; [2]): 1.7 ± 0.50 µg/mL
- Vmax, ABCG1-mediated cholesterol efflux (human ABCG1; BHK-ABCG1, mean ± SD, triplicate): 0.96 ± 0.01 % efflux/6h
- maximum net ABCG1 cholesterol efflux above base line (human ABCG1; lipid free, BHK-ABCG1, 6 h): 1%
- PC desorption in PM microdomains (in words) [1]: less PC desorption in PM microdomains than CS-6253
- SM desorption [1]: desorbed from both non-raft and raft domains
